# Results from the RNAGym collection of RNA variant scans (doi:10.1073/pnas.2313332121).
# B1: TPR t1 (parent)
# chain: GACCAAUCUGCCCUCAGAGCUCGAGAACAUCUUCGGAUGCAGAGGAGGCAGGCUUCGGUGGCGCGAUAGCGCCAACGUCCUCAACCUCCAAUGCAUCCCACCACAUGAUGAUGCCUGAAGAGCCUUGGUUUUUUG
# Variants of: B1
# Assay: polymerase ribozyme fitness, log enrichment relative to wild type (log ratio); higher = more active; in vitro selection for triplet polymerase activity
# In short: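 To select mutant libraries of each subunit of a heterodimeric triplet polymerase ribozyme, built by PCR and transcribed, each was annealed with a biotinylated primer, partner subunit and triplets, then incubated frozen at −7 °C. Extended constructs were gel-excised, captured on streptavidin beads and amplified by RT-PCR, in one round carried out in triplicate. Illumina sequencing of input and output libraries kept genotypes with ≥10 input reads and ≥1 read per output. Fitness is the base-2 logarithm of genotype enrichment relative to wild-type enrichment, from inverse-variance-weighted replicate averages.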
row,Variant,polymerase ribozyme fitness (log ratio)
1,A2U C53G C56U G69U,-1.92
2,A2U C12G G63A,-3.14
3,C3G C15A,-5.49
4,C3A A41C C80U C123A,-1.77
5,A2U C56A G63A C104A U112A,-5.33
6,C3U A27U G61A,-3.78
7,C3U A27U G61U,-2.61
8,C3A C70U,-1.64
9,A2U G36C A74C,-3.04
10,C3G A18U A43U C114G,-4.61
11,A2U C12G A95U,-2.91
12,C3A C34A,-3.91
13,C3G C12G C40A,-3.27
14,C3U A5G C8G C11G C73U C99A U109A G120A,-5.15
15,A2U C4G C22G U32C C70A A111U G128C,-4.89
16,A2U G36C C72G,-4.64
17,C3A U14G G69U C70U U106C,-4.86
18,C3G C11A C12A,-3.85
19,A2U C8G C15U C64U,-2.18
20,A2U C70U C88A,-3.44
21,A2U C88A A121U,-0.332
22,C3G C88U U106C,-2.72
23,C3G U78A U96A C123G U131C,-0.54
24,C3A A43U G60C C82G,-5.1

row,Variant,polymerase ribozyme fitness (log ratio)
1,C3G U59G C88U C115A,-2.65
2,C3G G71U,-2.64
3,C3A C15A C53U G63C,-3.45
4,C3U A84G G120A,-0.608
5,C3G A6U,-4.02
6,C3A C4A C40U C104A U112G,-3.41
7,C3G G57A G60A A111C,-2.99
8,C3G A119G,-0.446
9,A2U C64U,-2
10,C3U A29G A46U G61A A66U A83G C86A C101U U132A,-4.12
11,A2U C53G C76U U125G,-4.01
12,C3A A6C U59A C62A U78G C97U G117C G135C,-6.34
13,C3G C8A G113C G127C,-2.92
14,C3G U9A C72A G107U,-6.54
15,C3G G44A G47A C86G G120A,-4.34
16,A2U G10U G45A G48A C102U C114U G120C C123U,-4.53
17,C3A G45U G61A C88U A90C G113A,-3.92
18,C3G A27U G52A C72U U129A,-4.63
19,C3U A43G U55G A111G U126A,-4.64
20,C3A C56A G135U,-2.75
21,A2U C49A G71A C82A G120U,-3.9
22,C3A C4G U7A U21A C40U G47U C114U,-3.96
23,A2U C56U,-2.27
24,C3A G61A C79G U112A G135C,-2.83

row,Variant,polymerase ribozyme fitness (log ratio)
1,C3A C88A,-2.21
2,C3A C20G G60A C79U C98G C99A C123G,-2.5
3,A2U C8G G36U G45A C102U G120A G127C,-4.41
4,C3U A46U,-1.57
5,C3G C82U,-1.74
6,A2U C8A A74U A95U G110A G127U U130C,-3.91
7,C3G G61A A90G C99U,-3.39
8,C3A C40G G48C G77C C124U U133A,-4.13
9,C3A A6C C12A A50G C56G,-3.05
10,A2U G110A,-3.63
11,A2U G110C,-6.03
12,C3A A16C U78G C79U,-4.42
13,A2U C73A U78A U87C C124A U126A,-1.46
14,C3G G61U C104A,-3.47
15,C3U A46C C56U A121U,1.54
16,C3G C40G A121G U130G,0.237
17,A2U C8U C11G,-0.458
18,A2U U9A A26C G60A G117U,-6.53
19,C3A C56U G61U G113U G120U U126C,-5.49
20,C3G G36U A83U,-3.46
21,A2U C11U C97G G110C C114U G120C,-6.26
22,C3U A27U,-4.17
23,C3U A27G,-2.38
24,C3G C22U G61C U109A,-6.73

row,Variant,polymerase ribozyme fitness (log ratio)
1,C3G G36A G39C C53U A121C,-2.59
2,A2U C4U G61U C101A G127C,-3.03
3,C3A U55C G61A C86U,-2
4,C3A A43G C94G C114U,-3.66
5,C3A U21C U96C C124G,0.974
6,C3G C13U G63U A111C,-2.54
7,A2U G51U U59G A84C,-4.9
8,C3A G93A A95G,-2.11
9,C3A U9G G61C G113C,-4.85
10,C3U A6U G48A C62U C115U,-2.86
11,C3A C102U A121G,-0.526
12,A2U C89A C115A,-3.43
13,A2U C56A A83G,-4.24
14,C3G G69U A90U G93A U112C,-1.26
15,C3A G61U,-1.07
16,C3A G10U,-1.63
17,C3G C4G U7C C53A C123U,1.4
18,C3A C115U U125A U129G,-5.92
19,C3A A26U,-4.19
20,C3U A29G G48C C73G C79G C101U,-5.51
21,A2U G110C U131A,-5.15
22,A2U C13U A50G U112C,0.516
23,C3U A37U A84C,-0.656
24,A2U U116A,-5.18

row,Variant,polymerase ribozyme fitness (log ratio)
1,A2U U116C,-1.84
2,C3A U9A G61C,-2.34
3,C3A A37U,-2.19
4,A2U G52A C56A C82A A91G A121C,-2.84
5,C3G C8G U32C C115G,-2.01
6,C3A G17U,-4.27
7,A2U U9A C11G A24U G36U C56G C123G,-7.43
8,A2U C12U U78C U87G U112G,-3.07
9,C3G G19A A29U G48C C72G U106A G110C C114G,-7.4
10,C3G G10U G39U C72U C85U,-3.78
11,A2U C70U G128C,-2.25
12,A2U G52U C53A G63U U132C,-2.74
13,C3G C62A C82G,-3.81
14,C3A G127U,-0.622
15,C3A C13U C73U,-1.44
16,C3A C89U U96G C124A,0.0977
17,C3A A27C G45A C53A C123U,-4.25
18,C3A C11G C56G C82U C115U G117A,-1.87
19,A2U C20A G69U C70G,-5.15
20,A2U C73A G120C,-2.28
21,C3A C8U A46U G63C U130C,-1.24
22,A2U C12U C64U,-2.54
23,C3A C8G A74U A95C G117A G128U,-0.293
24,A2U C12U,-2.36

row,Variant,polymerase ribozyme fitness (log ratio)
1,C3A G128U,-1.03
2,C3A C73G A119U U129C,-1.93
3,A2U G61A,-2.17
4,A2U G61U,-1.84
5,C3A U9G C40U G57U A105G,-4.58
6,A2U G63A,-2.23
7,A2U G63C,-3.13
8,C3A C20U C101A A105C C114U U131G,-2.47
9,A2U G10U C115U,-3.43
10,A2U G10U G42A C88U C89G U92G C115G,-6.18
11,C3G A50U C94G,-4.4
12,A2U G10U C15G U106A,-2.38
13,A2U G57C,-2.3
14,C3G G47U G93A,-4.99
15,A2U C123A,-1.63
16,C3A C34A G45C C114U,-6.33
17,C3G G61U,-1.85
18,C3G G61C,-3.19
19,A2U U38G C70U C98U G128U,-6.66
20,C3G A37U C49U A100U G113A U129A,-4.75
21,A2U C13U,-1.36
22,C3G C70U C115U G127U,-4.54
23,A2U U21A G36A C56U C114A,-3.98
24,C3A G44C U112G C124U U125C,-1.64

row,Variant,polymerase ribozyme fitness (log ratio)
1,C3A C34U C79U C114A C124G G128U,-4.76
2,A2U G10A,-2.85
3,A2U U9A C11U A18C C20A C31G G77A A83G C97A G113U C124U,-7.17
4,C3G C4G C53U G60U G93A,-3.06
5,C3G U129C,-1.37
6,C3A C102U,-2.94
7,C3A G57U A75C C85G U112A C123U,-1.77
8,A2U G60U,-1.99
9,A2U G36C C53U,-3.54
10,A2U G61U G113C C114U,-3.06
11,C3G C73U,-2.12
12,C3A C11A A16U C49A G117A,-4.16
13,C3A G52U G60U,-1.88
14,C3U A37C G122A,-2.49
15,A2U U112G,-1.44
16,C3U A68G,-3.05
17,C3U A6U,0.0323
18,C3A A43G,-3.31
19,C3G G113A,-3.52
20,C3U A37G C49G G69A C73U,-3.7
21,C3G C53G C86G C94U U106G G120A,-5.63
22,C3U A5C C15A G69C U109A U116A,-5.71
23,C3A C15A A41U G58C G71U U92G C114G,-5.03
